The target in data set [1] is T1, Trm1 M24 (nuclear isoform, WT) (Schizosaccharomyces pombe, UniProt Q9P804 24-548).
T1 sequence: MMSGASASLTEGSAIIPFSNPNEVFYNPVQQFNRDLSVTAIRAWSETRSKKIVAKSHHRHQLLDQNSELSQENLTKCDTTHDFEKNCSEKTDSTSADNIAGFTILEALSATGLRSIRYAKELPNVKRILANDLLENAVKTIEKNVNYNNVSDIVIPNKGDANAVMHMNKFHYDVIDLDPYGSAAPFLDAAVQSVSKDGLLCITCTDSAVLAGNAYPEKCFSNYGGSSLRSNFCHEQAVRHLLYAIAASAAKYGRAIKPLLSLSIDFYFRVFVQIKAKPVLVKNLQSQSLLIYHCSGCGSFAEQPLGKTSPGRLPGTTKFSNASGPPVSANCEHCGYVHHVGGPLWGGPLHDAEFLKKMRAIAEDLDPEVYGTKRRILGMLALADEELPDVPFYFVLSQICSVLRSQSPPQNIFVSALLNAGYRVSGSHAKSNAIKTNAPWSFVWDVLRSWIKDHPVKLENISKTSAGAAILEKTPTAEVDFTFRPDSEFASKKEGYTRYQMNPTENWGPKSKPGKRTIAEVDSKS
Briefly: EMSA; replicate 1 of 3; Hill coefficient 7.061; no SAM listed; EMSA: 20 mM Tris-HCl pH 7.6, 100 mM KCl, 0.2 mM EDTA, 1 mM DTT; 32 °C 20 min, ice 2 min; 8% native gel at 4 °C. The settings on record: protein: recombinant; label: 32P (alpha-ATP, internal); tRNA fold, single strand.

Data set [2] concerns the target T2, Trm1 M24 D201A (catalytic-dead) (Schizosaccharomyces pombe, UniProt Q9P804 24-548, D201A).
T2 sequence: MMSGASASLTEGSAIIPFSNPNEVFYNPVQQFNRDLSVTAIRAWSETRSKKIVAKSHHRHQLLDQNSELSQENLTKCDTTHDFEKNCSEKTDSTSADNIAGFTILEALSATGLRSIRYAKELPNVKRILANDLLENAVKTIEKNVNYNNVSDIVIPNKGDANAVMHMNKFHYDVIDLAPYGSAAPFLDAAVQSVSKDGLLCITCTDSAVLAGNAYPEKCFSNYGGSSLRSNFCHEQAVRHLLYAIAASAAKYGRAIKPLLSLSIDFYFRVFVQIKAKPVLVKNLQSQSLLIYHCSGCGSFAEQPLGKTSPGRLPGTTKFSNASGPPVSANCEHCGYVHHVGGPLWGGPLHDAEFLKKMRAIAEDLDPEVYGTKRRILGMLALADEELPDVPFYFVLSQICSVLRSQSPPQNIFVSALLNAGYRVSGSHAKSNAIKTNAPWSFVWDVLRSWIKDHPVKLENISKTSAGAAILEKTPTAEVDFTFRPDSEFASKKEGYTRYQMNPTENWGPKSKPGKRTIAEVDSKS
In words: EMSA; affinity comparable to WT; Kd values not in material; no SAM listed; EMSA: 20 mM Tris-HCl pH 7.6, 100 mM KCl, 0.2 mM EDTA, 1 mM DTT; 32 °C 20 min, ice 2 min; 8% native gel at 4 °C. Particulars: protein: recombinant; label: 32P (alpha-ATP, internal); tRNA fold, single strand.

B1: pre-tRNA SerUGA (structured_RNA)
RNA: GUCACUAUGUCCGAGUGGUUAAGGAGUUAGACUUGAAUCCUGUCUAGUCAUCUAAUGGGCUUUGCCCGCGCAGGUUCAAAUCCUGCUGGUGACGGUAUUU
B1: the equilibrium dissociation constant (Kd) in data set [1] turned out to be 576 nM. Also, the binding result in data set [2] was “binds”.

Source of the values: publication PMC10652106, “Crosstalk between the tRNA methyltransferase Trm1 and RNA chaperone La influences eukaryotic tRNA maturation”.
